# Assay results taken from patent EP4663659A1 (Merck Patent GmbH, dated 2025).
# B1: anti-MUC-1 (D11-28) antibody, PE-labeled (antibody, human IgG1, lambda, L234A L235A, V domains shown)
# VH: EVQLVQSGAEVKKPGASVKVSCKASGYSFTGHYMHWVRQAPGQGLEWMGWIDPVTGGTKYAQKFQGWVTMTRDTSISTAYMELSRLRSDDTAVYYCAREVTGDRGQFDKWGQGTLVTVSS
# VL: SYVLTQPPSVSVAPGKTARITCGGNNIGSKSVHWYQQKPGQAPVLVIYYGSNRPSGIPERFSGSNSGNTATLTISRVEAGDEADYYCQVWDSSSDWVFGGGTKLTVLG
# modifications: PE (phycoerythrin) label, site not stated
# notes: also called anti-MUC-1 antibody clone (D11-28); anti-MUC-1 PE antibody
# Biological target: T1, human MUC-1 on cells (human, UniProt P15941 24-1255)
# T1 construct: Endogenous on human tumour cell lines and normal kidney and lung cells; also called hMUC-1; mucin 1
# Assay: flow cytometry with PE-labeled antibody on tumor cell lines, MESF by PE Quantum Beads
# T1 sequence (P15941 24-1255 limits assumed): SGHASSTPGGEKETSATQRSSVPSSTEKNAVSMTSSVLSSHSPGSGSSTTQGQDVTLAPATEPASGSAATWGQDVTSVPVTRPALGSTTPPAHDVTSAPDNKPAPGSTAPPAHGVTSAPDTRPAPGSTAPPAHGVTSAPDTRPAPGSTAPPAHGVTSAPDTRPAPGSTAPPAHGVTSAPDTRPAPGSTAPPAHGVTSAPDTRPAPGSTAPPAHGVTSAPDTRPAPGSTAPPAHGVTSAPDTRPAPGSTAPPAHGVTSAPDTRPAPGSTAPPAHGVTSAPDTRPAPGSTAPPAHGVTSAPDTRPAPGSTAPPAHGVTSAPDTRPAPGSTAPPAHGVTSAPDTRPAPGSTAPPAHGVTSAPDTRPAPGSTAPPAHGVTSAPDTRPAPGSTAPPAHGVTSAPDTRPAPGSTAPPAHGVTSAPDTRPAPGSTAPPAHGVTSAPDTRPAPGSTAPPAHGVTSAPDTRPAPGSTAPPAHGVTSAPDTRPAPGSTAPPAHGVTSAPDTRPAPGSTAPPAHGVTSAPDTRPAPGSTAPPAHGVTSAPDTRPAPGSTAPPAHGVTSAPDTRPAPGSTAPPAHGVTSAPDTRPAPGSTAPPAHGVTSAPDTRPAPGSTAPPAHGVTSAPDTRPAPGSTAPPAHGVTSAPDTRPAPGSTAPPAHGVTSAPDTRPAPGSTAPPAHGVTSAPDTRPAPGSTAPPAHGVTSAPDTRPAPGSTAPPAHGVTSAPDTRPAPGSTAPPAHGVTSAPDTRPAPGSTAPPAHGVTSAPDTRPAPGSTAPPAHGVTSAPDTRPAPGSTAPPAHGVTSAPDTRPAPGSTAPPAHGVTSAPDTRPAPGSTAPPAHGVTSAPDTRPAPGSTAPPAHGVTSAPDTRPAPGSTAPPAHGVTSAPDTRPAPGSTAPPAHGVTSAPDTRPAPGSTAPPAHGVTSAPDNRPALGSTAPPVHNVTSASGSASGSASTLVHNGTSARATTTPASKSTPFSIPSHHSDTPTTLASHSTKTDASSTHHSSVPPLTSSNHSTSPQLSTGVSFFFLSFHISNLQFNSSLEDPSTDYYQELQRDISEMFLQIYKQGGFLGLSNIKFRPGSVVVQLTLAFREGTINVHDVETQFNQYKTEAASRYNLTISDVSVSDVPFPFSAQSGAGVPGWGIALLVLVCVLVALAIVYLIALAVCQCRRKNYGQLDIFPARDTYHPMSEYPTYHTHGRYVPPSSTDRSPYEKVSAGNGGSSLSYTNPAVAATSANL
binder,measurement,value
B1,binding result,binds
